{"source": "patent US20230243070A1", "about": "(Molecular Partners, published 2023)", "binders": {"B1": {"name": "BP DARPin® protein #21/#22 (designed binder)", "chain": "GSDLGKKLLQAARAGQLDEVRELLKAGADVNAKDLIGVTPLHLAAFSGHLEIVEVLLKASADVNAKDVSGRTPLHVAAKHGHLEIVEVLLKAGADVNAKDLIGFTPLHLAAQFGHLEIVEVLLKAGADVNAQDKSGKTPADLAARAGHQDIAEVLQKAAGSPTPTPTTPTPTPTTPTPTPTGSDLGKKLLQAARAGQLDEVRELLKAGADVNAKDAIGFTPLHLAAFSGHLEIVEVLLKAGADVNAKDVAGYTPLHVAALYGHLVIVEVLLKAGADVNAKDKAGETPLHLAAFAGHLEIVEVLLKAGADVNAQDKSGKTPADLAARAGHQDIAEVLQKAA"}}, "target": "T1, NYESOpMHC on T2 cells pulsed with NY-ESO-1-9V (157-165) peptide", "T1 construct": "whole, on cells; also called NY-ESO pulsed cells; pulsed T2 cells", "assay": "flow cytometry on T2 cells pulsed with NY-ESO-1-9V (157-165) peptide", "data": [{"binder": "B1", "values": [{"measurement": "EC50", "result": 1.4, "unit": "nM"}]}]}
